Laboratory results published in article PMC8207546.

Legend:
[1] = in vitro fusion of GFP-LC3 and LAMP2B-mCherry vesicles; conditions: glycan gained; control: non-O-GlcNAcylated His-GRASP55
[2] = LC3-LAMP2 co-IP with added recombinant GRASP55; conditions: glycan gained; control: non-O-GlcNAcylated His-GRASP55 (coexpressed with GST)

Row | Substance | other: autophagosome-lysosome fusion activity [1] | other: bridging of LC3-LAMP2 interaction [2]
1 | GRASP55: O-GlcNAcylated His-GRASP55 | decreases | –
2 | GRASP55: O-GlcNAcylated His-GRASP55 (coexpressed with GST-OGT) | – | decreases
